Data: paper PMC10871540 (Science Advances, 2024)

Biological target: T1, UNC-40 ECD (C. elegans, UniProt G5EF96 23-1082)
T1 sequence (looked up): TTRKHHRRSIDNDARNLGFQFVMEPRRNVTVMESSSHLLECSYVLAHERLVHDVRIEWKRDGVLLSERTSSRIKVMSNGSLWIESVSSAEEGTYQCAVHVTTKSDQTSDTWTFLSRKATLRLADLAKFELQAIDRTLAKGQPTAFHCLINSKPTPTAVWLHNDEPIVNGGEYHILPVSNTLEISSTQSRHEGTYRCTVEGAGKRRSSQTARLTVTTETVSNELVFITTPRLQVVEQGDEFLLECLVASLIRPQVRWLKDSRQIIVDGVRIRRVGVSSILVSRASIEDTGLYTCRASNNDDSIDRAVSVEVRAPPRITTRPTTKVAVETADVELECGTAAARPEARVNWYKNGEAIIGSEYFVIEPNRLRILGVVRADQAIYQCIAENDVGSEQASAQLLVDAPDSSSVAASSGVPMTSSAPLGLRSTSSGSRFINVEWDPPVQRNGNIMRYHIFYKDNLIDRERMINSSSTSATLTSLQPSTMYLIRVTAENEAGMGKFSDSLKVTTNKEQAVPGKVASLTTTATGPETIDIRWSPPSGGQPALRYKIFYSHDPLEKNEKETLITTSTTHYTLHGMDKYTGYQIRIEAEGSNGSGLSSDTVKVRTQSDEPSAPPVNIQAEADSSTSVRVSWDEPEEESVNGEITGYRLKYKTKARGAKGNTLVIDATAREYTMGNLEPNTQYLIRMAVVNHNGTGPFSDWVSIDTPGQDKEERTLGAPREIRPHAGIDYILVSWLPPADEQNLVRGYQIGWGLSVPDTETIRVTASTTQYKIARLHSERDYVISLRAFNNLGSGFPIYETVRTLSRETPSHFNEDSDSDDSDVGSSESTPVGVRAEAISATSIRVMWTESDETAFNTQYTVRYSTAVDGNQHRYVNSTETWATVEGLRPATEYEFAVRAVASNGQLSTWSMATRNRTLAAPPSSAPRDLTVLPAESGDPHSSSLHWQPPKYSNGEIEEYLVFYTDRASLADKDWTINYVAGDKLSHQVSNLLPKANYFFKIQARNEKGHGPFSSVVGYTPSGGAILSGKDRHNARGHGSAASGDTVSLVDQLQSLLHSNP
Assay: SEC

binding result: binds
B1: UNC-6ΔC (ligand)
chain: not shown
